17 molecules from paper PMC10039853, “Increasing the melting temperature of VHH with the in silico free energy score” (Scientific Reports, 2023) can be followed below.

Residue numbers refer to the chain shown, from its start. In names and notes the source's numbering stands.

First the molecules themselves.
B1: D3-L11 G97F (VHH)
VHH: DVQLVESGGGSVQAGGSLRLSCAASGSTDSIEYMTWFRQAPGKAREGVAALYTHTGNTYYTDSVKGRFTISQDKAKNMAYLRMDSVKSEDTAIYTCFATRKYVPVRFALDQSSYDYWGQGTQVTVSS
notes: as the VHH chain of Sm1 (D3-L11 wild type, PDB 6JB8) with G97F; SAG tripeptide linker before the C-terminal 6xHis tag; source: ExpiCHO, transient transfection, purified from supernatant (His Mag Sepharose excel); not shown: His6, C-terminal, kept
B2: D3-L11 A79Q (VHH)
VHH: B1 VHH with A79Q, F97G
notes: as the VHH chain of Sm1 (D3-L11 wild type, PDB 6JB8) with A79Q; SAG tripeptide linker before the C-terminal 6xHis tag; source: ExpiCHO, transient transfection, purified from supernatant (His Mag Sepharose excel); not shown: His6, C-terminal, kept
B3: D3-L11 A79M (VHH)
VHH: B1 VHH with A79M, F97G
notes: as the VHH chain of Sm1 (D3-L11 wild type, PDB 6JB8) with A79M; SAG tripeptide linker before the C-terminal 6xHis tag; source: ExpiCHO, transient transfection, purified from supernatant (His Mag Sepharose excel); not shown: His6, C-terminal, kept
B4: D3-L11 A79I (VHH)
VHH: B1 VHH with A79I, F97G
notes: as the VHH chain of Sm1 (D3-L11 wild type, PDB 6JB8) with A79I; SAG tripeptide linker before the C-terminal 6xHis tag; source: ExpiCHO, transient transfection, purified from supernatant (His Mag Sepharose excel); not shown: His6, C-terminal, kept
B5: D3-L11 A79Y (VHH)
VHH: B1 VHH with A79Y, F97G
notes: as the VHH chain of Sm1 (D3-L11 wild type, PDB 6JB8) with A79Y; SAG tripeptide linker before the C-terminal 6xHis tag; source: ExpiCHO, transient transfection, purified from supernatant (His Mag Sepharose excel); not shown: His6, C-terminal, kept
B6: D3-L11 A79C (VHH)
VHH: B1 VHH with A79C, F97G
notes: as the VHH chain of Sm1 (D3-L11 wild type, PDB 6JB8) with A79C; SAG tripeptide linker before the C-terminal 6xHis tag; source: ExpiCHO, transient transfection, purified from supernatant (His Mag Sepharose excel); not shown: His6, C-terminal, kept
B7: D3-L11 A79S (VHH)
VHH: B1 VHH with A79S, F97G
notes: as the VHH chain of Sm1 (D3-L11 wild type, PDB 6JB8) with A79S; SAG tripeptide linker before the C-terminal 6xHis tag; source: ExpiCHO, transient transfection, purified from supernatant (His Mag Sepharose excel); not shown: His6, C-terminal, kept
B8: D3-L11 A79L (VHH)
VHH: B1 VHH with A79L, F97G
notes: as the VHH chain of Sm1 (D3-L11 wild type, PDB 6JB8) with A79L; SAG tripeptide linker before the C-terminal 6xHis tag; source: ExpiCHO, transient transfection, purified from supernatant (His Mag Sepharose excel); not shown: His6, C-terminal, kept
B9: D3-L11 A79V (VHH)
VHH: B1 VHH with A79V, F97G
notes: as the VHH chain of Sm1 (D3-L11 wild type, PDB 6JB8) with A79V; SAG tripeptide linker before the C-terminal 6xHis tag; source: ExpiCHO, transient transfection, purified from supernatant (His Mag Sepharose excel); not shown: His6, C-terminal, kept
B10: D3-L11 A79W (VHH)
VHH: B1 VHH with A79W, F97G
notes: as the VHH chain of Sm1 (D3-L11 wild type, PDB 6JB8) with A79W; SAG tripeptide linker before the C-terminal 6xHis tag; source: ExpiCHO, transient transfection, purified from supernatant (His Mag Sepharose excel); not shown: His6, C-terminal, kept
B11: D3-L11 A79F (VHH)
VHH: B1 VHH with A79F, F97G
notes: as the VHH chain of Sm1 (D3-L11 wild type, PDB 6JB8) with A79F; SAG tripeptide linker before the C-terminal 6xHis tag; source: ExpiCHO, transient transfection, purified from supernatant (His Mag Sepharose excel); not shown: His6, C-terminal, kept
B12: D3-L11 A79N (VHH)
VHH: B1 VHH with A79N, F97G
notes: as the VHH chain of Sm1 (D3-L11 wild type, PDB 6JB8) with A79N; SAG tripeptide linker before the C-terminal 6xHis tag; source: ExpiCHO, transient transfection, purified from supernatant (His Mag Sepharose excel); not shown: His6, C-terminal, kept
B13: D3-L11 A79H (VHH)
VHH: B1 VHH with A79H, F97G
notes: as the VHH chain of Sm1 (D3-L11 wild type, PDB 6JB8) with A79H; SAG tripeptide linker before the C-terminal 6xHis tag; source: ExpiCHO, transient transfection, purified from supernatant (His Mag Sepharose excel); not shown: His6, C-terminal, kept
B14: D3-L11 A79R (VHH)
VHH: B1 VHH with A79R, F97G
notes: as the VHH chain of Sm1 (D3-L11 wild type, PDB 6JB8) with A79R; SAG tripeptide linker before the C-terminal 6xHis tag; source: ExpiCHO, transient transfection, purified from supernatant (His Mag Sepharose excel); not shown: His6, C-terminal, kept
B15: D3-L11 G26I (VHH)
VHH: B1 VHH with G26I, F97G
notes: as the VHH chain of Sm1 (D3-L11 wild type, PDB 6JB8) with G26I; SAG tripeptide linker before the C-terminal 6xHis tag; source: ExpiCHO, transient transfection, purified from supernatant (His Mag Sepharose excel); not shown: His6, C-terminal, kept
B16: anti-lysozyme VHH D3-L11, wild type (VHH)
VHH: B1 VHH with F97G
notes: anti-hen egg lysozyme VHH D3-L11, 127 amino acids; A SAG tripeptide linker stands between the VHH and the C-terminal 6xHis tag; also called WT; source: ExpiCHO, transient transfection, purified from supernatant (His Mag Sepharose excel); not shown: His6, C-terminal, kept
B17: D3-L11 A24L (VHH)
VHH: B1 VHH with A24L, F97G
notes: as the VHH chain of Sm1 (D3-L11 wild type, PDB 6JB8) with A24L; SAG tripeptide linker before the C-terminal 6xHis tag; source: ExpiCHO, transient transfection, purified from supernatant (His Mag Sepharose excel); not shown: His6, C-terminal, kept

T1 sequence (P00698 19-147): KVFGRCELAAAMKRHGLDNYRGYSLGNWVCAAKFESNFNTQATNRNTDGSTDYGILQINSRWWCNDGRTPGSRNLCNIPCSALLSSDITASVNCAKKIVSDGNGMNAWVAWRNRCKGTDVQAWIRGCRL

The assay addresses T1, hen egg lysozyme (Gallus gallus (hen egg white), UniProt P00698).
T1 construct: hen egg lysozyme (HEL), the antigen of D3-L11; also in PDB 6JB8; The supplier is named for the ELISA only; also called HEL; antigen lysozyme; source: bought: Sigma-Aldrich, Cat No. L6876
The assay can be described thus: SPR; Biacore T200; lysozyme immobilised on Sensor Chip CM5 by amine coupling (200 RU); VHH injected 300 s, dissociation 600 s in PBST (PBS, 0.005% Tween 20); 1:1 binding model; duplicate. The note with it: both partners purified. On the technique in general: SPR reads the build-up and loss of mass on a sensor chip optically.
B1 displayed an equilibrium dissociation constant (Kd) of 6 ± 0.4 pM.
The molecule B2 showed a dissociation constant Kd of 7.2 ± 0.03 pM.
The same measure for B3: 6.91 ± 0.1 pM; for B4: 4.92 ± 0.12 pM.
The same measure for B5: 5.57 ± 0.04 pM; for B6: 3.74 ± 0.03 pM.
Take B7: binding was characterised by a dissociation constant (Kd) of 11.7 pM.
The same measure for B8: 6.54 ± 0.03 pM.
For the molecule B9, binding was put at a Kd of 3.66 ± 0.13 pM.
The molecule B10 registered an equilibrium dissociation constant (Kd) of 14.9 ± 0.1 pM.
B11: the Kd was 12.1 ± 0.2 pM.
B12: the Kd is 8.04 ± 0.07 pM.
The same measure for B13: 23.1 pM; for B14: 26 ± 0.1 pM.
B15 yielded a dissociation constant Kd of 25 ± 0.3 pM.
The same measure for B16: 3.17 ± 0.19 pM; for B17: 43.6 ± 1.3 pM.

In general, Kd refers to the free concentration of one partner at which half of the binding sites on the other are occupied at equilibrium, for simple one-to-one binding.
